The target of the test is Neu/V664E TM domain peptide (rat). As to the kind of experiment: SDS-PAGE mobility.

Here are results for one substance from paper PMC3158823.

The term stoichiometry N denotes a count of units in the complex or per binding partner.

On to Neu/V664E TM domain peptide, for which the stoichiometry N came to 2.
